Test results published in the supplement of paper PMC9170038.

Tested on: MS2 coat protein
Experiment: apparent KD of MS2 coat protein; designed switch direction (-1 OFF switch, 1 ON switch): -1; higher = weaker reporter binding
Method in brief: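 SNAP-549-labelled MS2 coat protein was titrated, doubling from 0.7 or 1.5 nM to 3 µM, over designed RNA switches transcribed on Illumina chips by stalled E. coli RNA polymerase. Runs were done without input, with 200 uM small-molecule ligand, or with an oligonucleotide input. Apparent KD is the per-design median over clusters of curve-fitted normalised fluorescence.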

[1] = input ligand: microRNA oligo, concentration not stated
[2] = Eterna round: R95, input ligand: microRNA oligo, concentration not stated
[3] = Eterna round: R95, input ligand: FMN 200 uM
[4] = Eterna round: R95, input ligand: none

Sequence | apparent KD of MS2 coat protein (input ligand: FMN 200 uM) [nM] | apparent KD of MS2 coat protein (input ligand: none) [nM] | apparent KD of MS2 coat protein [1] [nM] | apparent KD of MS2 coat protein [2] [nM] | apparent KD of MS2 coat protein [3] [nM] | apparent KD of MS2 coat protein [4] [nM]
UUGUCACAUGAGGAUCACCCAUGUGAGGAUAUGGCCCGCCCGGCGUGUGCUGGUUUUGUCAGAAGGCGCGUGGG [salish99_ex1_r4_028] (Eterna round: R97, puzzle: Exclusion 1) | 24.6 | 19.6 |  |  |  | 
ACAAGCUUAAUCUGUAUGAACAUGAGGAUCACCCAUGUAAAAGGGAAUACUUUUGGGUUUUUUAUAGCUCGUCUUAU [JR_STOV1_Sub019] (Eterna round: R97, puzzle: Sensor, turn-off variant 1) | 52 | 49.5 |  |  |  | 
CCCGCACGAGUUAGGAUAUCAUUUGUCGAGAUAGGUGAGAAGGAACUUGAGGAUCACCCAAGUGUCCCGGGAAA [Maquso] (Eterna round: R97, puzzle: Brourd's mod of Exclusion 4) | 37.5 | 20.1 |  |  |  | 
UAAUUAAAUGUAGGAUAUCUGCACGUGUAGUGCAGAGAAGGACAUGAGGAUCACCCAUGUAGAUCAAAUUAAAUUAAUUUAAUU [ENG1/5-D3] (Eterna round: R96, puzzle: Exclusion NG 1) | 54 | 23.7 | 21.5 |  |  | 
AGGGAACAUGAGGAUCACCCAUGUGAGGAUAUACAAAAGAAAAGAAAAGAAAGAAGAAGUAGAAGGUACAAGAA [Neferka] (Eterna round: R96, puzzle: Exclusion 1) | 32.4 | 32.8 | 26.9 |  |  | 
CUCGAGUCAGGAUAUGUUCCGCAUGGCAACAUGCUAUAAGAAUAGAAGGGACAUGAGGAUCACCCAUGUUAACA [Eternabot (Original) Solution 12] (Eterna round: R97, puzzle: Exclusion 4) | 162 | 44.7 |  |  |  | 
AGAGUGCUGCGAGGAUAUACAUGAGGAUCACCCAUGUGGAUCUGUGAGGGAAAACCUCACAGGAUGUAGAAGGCGCAGUACUCA [Mat - Exclusion NG 2 - Mod of JL - D50] (Eterna round: R96, puzzle: Exclusion NG 2) | 134 | 37.2 | 15.8 |  |  | 
GACCAGGUAGGAUAUGCUGGGUCGGACUUGAGGAUCACCCAAGUGGCCAAAGUGCGUCCCGCAGAAGGGCCGAAAA [Inanorxeti] (Eterna round: R97, puzzle: Exclusion 5) | 81.6 | 827 |  |  |  | 
GCGGCUGACGUCAGGAUAUCCGUACCGUAUGGGUGGGAGAAGGGACAUGAGGAUCACCCAUGUUAAUCUAUUAA [Eternabot (L1) Solution 45] (Eterna round: R97, puzzle: Brourd's mod of Exclusion 4) | 62.7 | 58.4 |  |  |  | 
AUAGGAGUAGGAUAUUCAGUUCGACACAUGAGGAUCACCCAUGUCGCUGUGGCCGGGCACGGAGAAGGAUUGUUGU [Eternabot (L1) Solution 15] (Eterna round: R97, puzzle: Exclusion 5) | 39.1 | 36.3 |  |  |  | 
UUUUUUGUUGUGAGGAUAUCGUUUUUGUUUUGGAUCGAGAAGGCACAUGAGGAUCACCCAUGUUUGUUGUGGUU [JR_BMOE4_Sub087] (puzzle: Brourd's mod of Exclusion 4) |  |  |  | 78.3 |  | 
AAGGGUACUUUCGGAACGACAUGAGGAUCACCCAUGUAGACUGAGGAUAUCUACUACUAAGGACGGGAGAAGGCAGUGUAAUGU [Ex NG3 #76] (Eterna round: R96, puzzle: Exclusion NG 3) |  |  | 11.8 |  |  | 
UGAAGUAGAAACCGAUCCUACAUGAGGAUCACCCAUGUAGCAAGACGUGCACGCGAAGCUCGUCAGACUACCAGAAG [salish99_TOv1_r3_002] (puzzle: Sensor v3, turn-off variant 1) |  |  |  | 167 | 170 | 366
CAUAGUAAUUAGGAUAUCUGCCGGCUGAGCCGAGGAGAAGGGAUUACAUGAGGAUCACCCAUGUGGUCCUAGAA [Lebireti] (puzzle: Exclusion 6) |  |  |  | 20.1 | 31.3 | 19.9
UUUAAUUUUUUUUUUUUACAAGCUUUUUGCUCGUCUUAUACAUGAGGAUCACCCAUGUGGGUGAAAGAUAAAUUAUC [JMF 5] (puzzle: Sensor v3, turn-off variant 2) |  |  |  | 19.2 | 54.9 | 37.6
AAAAGGCUAGGAUAUACAUGAGGAUCACCCAUGUGUACUGGACAUGCGGUAUGCGUAUGUAGAAGGAGUAUAAA [Inaisor] (puzzle: Exclusion 3) |  |  |  | 14.2 |  | 

Sequence | apparent KD of MS2 coat protein (input ligand: FMN 200 uM) [nM] | apparent KD of MS2 coat protein (input ligand: none) [nM] | apparent KD of MS2 coat protein [1] [nM] | apparent KD of MS2 coat protein [2] [nM] | apparent KD of MS2 coat protein [3] [nM] | apparent KD of MS2 coat protein [4] [nM]
CUGAUGUGAGGAUAUCUAAGGCGACCAUGAGACAUGGGCCAAGAGAAGGCACAUGAGGAUCACCCAUGUACCGA [Anertees] (Eterna round: R97, puzzle: Exclusion 4) | 83.8 | 22.2 |  |  |  | 
ACUGGUCGAGGAUAUACAAUCGUGCUUCGGCACGUAAGGUCACAUGAGGAUCACCCAUGUAGAAGGCGACCAGU [E2/2-A3] (Eterna round: R97, puzzle: Exclusion 2) | 226 | 29.5 |  |  |  | 
CUCUGCACGCUGCGGUCCUACAUGAGGAUCACCCAUGUGGUCUGGUGGCGUGGGUCGCCGGACUUGGCUCGUCUUGA [salish99_S_TOV1_R5_046] (Eterna round: R97, puzzle: Sensor, turn-off variant 1) | 19 | 18.7 |  |  |  | 
CUGAGCAGACGGAGAUCCAACAUGAGGAUCACCCAUGUCUCAGAAGCUUUUUGCUCGUCUUAUCCUCCUCUGUUCAC [Elimod 21 - Jieux - Sensor, turn-off variant 1] (Eterna round: R97, puzzle: Sensor, turn-off variant 1) | 103 | 119 |  |  |  | 
CCCGGGUUAGGAUAUUCCUCGUGCAGCUGACAGCCACGGGAGAAGAAGGGACAUGAGGAUCACCCAUGUGAAUA [Eternabot (L2) Solution 47] (Eterna round: R97, puzzle: Exclusion 4) | 42 | 32.9 |  |  |  | 
GAGCCAACAGGAUAUACAUGAGGAUCACCCAUGUGAAUUCGCUACACAGGGAUGAACAGUAGAAGGGUUGGUAU [Eternabot (Original) Solution 49] (Eterna round: R97, puzzle: Exclusion 3) | 165 | 229 |  |  |  | 
UUCAUGUGAGGAUAUAGUACUCUUUCUAUUAUUAUUGAGUAUUAGAAGGCACAUGAGGAUCACCCAUGUAGUAC [Ex4 - 3 - 41] (puzzle: Exclusion 4) |  |  |  | 28.1 |  | 
AUAUUGCGAGGAUAUACAUGAGGAUCACCCAUGUGGUAGUAGAUACGGUAGGGCUAGUGUAGAAGGUGUUAUGA [EX3 #14] (Eterna round: R97, puzzle: Exclusion 3) | 80.2 | 172 |  |  |  | 
UACAUGAGGAUCACCCAUGUUUUGUCGUGUAUGGUAUUUAUCUAGGAUAUCAAGUUAAUUAUUUAUGAGAAGGAGAAUAUUAAU [JMF's solution 28] (Eterna round: R96, puzzle: Exclusion NG 3) | 37 | 39 | 31.7 |  |  | 
ACAUGAGGAUCACCCAUGUCCGGCUGGUCCGUCUCGGCUGUCGAGGAUAUAGCUUGGUGUCCGCGCUAGAAGGUGGGAGCCGGC [Aenatbe mod 71] (Eterna round: R96, puzzle: Exclusion NG 3) | 166 | 154 | 105 |  |  | 
AGAAGACAUGAGGAUCACCCAUGUAAGGAUAUCGGAGGUAAGGGAGGAAGGAGAUAGGCGAGAAGGUACAGGUG [JR_Exclu1_Sub093] (puzzle: Exclusion 1) |  |  |  | 53.1 | 39 | 51.7
AGGUCCUUCUGGACACAUGAGGAUCACCCAUGUGAGGUCAGCGAGGAUAUCGGUCAAUAAUGUGACGAGAAGGCGCGGACCGAU [Ex NG3 #58] (Eterna round: R96, puzzle: Exclusion NG 3) | 31.6 | 19.1 | 14.8 |  |  | 
CUUGUUUAUGUAGGAUAUGCCUGGCGUGCCUUUGCAGAAGGACAUGAGGAUCACCCAUGUAUUGCGGUCUGCGUUCAGAUCGCU [salish99_ExNG1_r4_044] (Eterna round: R96, puzzle: Exclusion NG 1) | 41.1 | 36.6 | 28.8 |  |  | 
GAUUAUGCGAGCUUUAGGGACAUGAGGAUCACCCAUGUUCGUCUUAUUGGUCUGGAUGCACUAACAUACCUAAAUCU [JMF 28] (puzzle: Sensor v3, turn-off variant 1) |  |  |  | 30.4 | 22.4 | 24
CGGAUGUUAGGAUAUUAGUAGUAGUCAGAAUAGACUAUUACUGAGAAGGAACAUGAGGAUCACCCAUGUUUCCG [Eli x4 4.19] (Eterna round: R97, puzzle: Exclusion 4) | 16.5 | 17.4 |  |  |  | 
